Measurements: article PMC8183521 (2021)

Target: SARS-CoV-2 (2019-nCoV) Spike RBD-His Recombinant Protein (SARS-CoV-2, UniProt P0DTC2 319-541)
Test: ELISA

B1: B-38 (antibody, V domains shown)
VH: EVQLVESGGGLVQPGGSLRLSCAASGFIVSSNYMSWVRQAPGKGLEWVSVIYSGGSTYYADSVKGRFTISRHNSKNTLYLQMNSLRAEDTAVYYCAREAYGMDVWGQGTTVTVSS
VL: DIVMTQSPSFLSASVGDRVTITCRASQGISSYLAWYQQKPGKAPKLLIYAASTLQSGVPSRFSGSGSGTEFTLTISSLQPEDFATYYCQQLNSYPPYTFGQGTKLEIK
B1 was tested. Which EC50 did it give?
The EC50 was 1.5 µg/mL.
